Results published in article PMC10511717.

Target: RANKL of the osteoclast differentiation medium (UniProt O35235)
Sequence of UniProt O35235 (O35235 whole entry): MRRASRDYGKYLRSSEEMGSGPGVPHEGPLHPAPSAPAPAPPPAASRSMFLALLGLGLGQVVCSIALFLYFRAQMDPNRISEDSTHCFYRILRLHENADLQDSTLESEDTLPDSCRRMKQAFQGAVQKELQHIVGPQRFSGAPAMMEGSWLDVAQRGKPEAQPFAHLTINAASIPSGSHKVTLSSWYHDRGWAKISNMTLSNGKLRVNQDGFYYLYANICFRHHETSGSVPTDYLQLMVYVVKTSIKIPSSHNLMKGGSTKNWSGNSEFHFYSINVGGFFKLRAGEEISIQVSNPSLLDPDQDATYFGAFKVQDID

osteoclast number (TRAP staining after 4 days) in primary murine osteoclast culture differentiated with M-CSF and RANKL; OMD at 10 and 40 ng/mL preincubated with RANKL and M-CSF (% reduction of osteoclast number): 50
B1: recombinant mouse OMD (natural protein)
chain: QYEAYRWDDDYDQEPNEDYDPEFQFHQNIEYGVPFYNNILGCAKECFCPTNFPTSMYCDNRKLKTIPIIPMHIQQLNLQFNDIEAVTANSFINATHLKEINLSHNKIKSQKIDYGVFAKLSNLQQLHLEHNNLEEFPFPLPKSLERLLLGYNEISILPTNAMDGLVNVTMLDLCYNHLSDSMLKEKTLSKMEKLMQLNLCNNRLESMPLGLPSSLMYLSLENNSISSIPDNYFDKLPKLHALRISHNKLEDIPYDIFNLSNLIELNVGHNKLKQAFYIPRNLEHLYLQNNEIESINVTMICPSPDPVHHHHLTYLRVDQNKLKEPISSYIFFCFPRIHSIYYGEQRSTNGETIQLKTQVFRSYQEEEEEDDHDSQDNTLEGQEVSDEHYNSHYYEMQEWQDTI
